Reference: paper PMC12082725

Biological target: SARS-CoV-2 nucleocapsid protein (NP), full length (SARS-CoV-2, UniProt P0DTC9 1-419)
Assay: BLI

B1: 11-mer 5' TRS-derived RNA (ssRNA)
RNA: UCUAAACGAAC
Which Kd does the source give for B1 here?
Its Kd is 3.83 ± 0.04 nM.
